# Data from article doi:10.1101/2024.09.22.614354 (bioRxiv, 2024).
# Residue numbers refer to the chain shown, from its start. Where two headings read alike, the source gives them in different places. Where no end group is shown, it is not given here. TMR = tetramethyl rhodamine dye
# Legend:
# Experiment in all cases: fluorescence polarisation
# Rb^P S751Y = target: T1, Rb^P S751Y (human, UniProt P06400 380-788, S751Y)
# T1 sequence: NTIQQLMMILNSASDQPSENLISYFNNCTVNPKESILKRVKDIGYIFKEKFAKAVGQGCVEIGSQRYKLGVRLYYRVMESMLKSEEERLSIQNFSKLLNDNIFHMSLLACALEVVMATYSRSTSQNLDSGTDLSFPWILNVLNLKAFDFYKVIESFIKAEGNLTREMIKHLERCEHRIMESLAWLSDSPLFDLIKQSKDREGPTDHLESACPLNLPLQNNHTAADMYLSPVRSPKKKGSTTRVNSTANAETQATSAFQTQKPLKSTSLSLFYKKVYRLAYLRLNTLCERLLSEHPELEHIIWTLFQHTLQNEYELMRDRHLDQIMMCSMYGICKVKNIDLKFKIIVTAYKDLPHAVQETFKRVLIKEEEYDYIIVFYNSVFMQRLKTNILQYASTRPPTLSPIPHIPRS
# [1] = target: T2, wild type Rb pocket domain (Rb^P) (human, UniProt P06400 380-788)
# T2 sequence: T1 sequence with Y372S
# Rb^P I703F = target: T3, Rb^P I703F (human, UniProt P06400 380-788, I703F)
# T3 sequence: T1 sequence with I324F, Y372S
# Rb^P E554K = target: T4, Rb^P E554K (human, UniProt P06400 380-788, E554K)
# T4 sequence: T1 sequence with E175K, Y372S
# Rb^P M704V = target: T5, Rb^P M704V (human, UniProt P06400 380-788, M704V)
# T5 sequence: T1 sequence with M325V, Y372S
# [2] = target: T2, wild type Rb pocket domain (Rb^P); remark: listed apart in the source
# [3] = target: T2, wild type Rb pocket domain (Rb^P); remark: listed apart in the source
binder,measurement,setting,value
"{TMR}-GEGIRDLFDCDFGDLTPLD [TMR-E2F1^TD (peptide of the E2F1 transactivation domain, N-labeled with tetramethyl rhodamine)]",Kd,Rb^P S751Y,28 nM
same,Kd,[1],17 nM
same,Kd,Rb^P I703F,94 nM
same,Kd,Rb^P E554K,1740 nM
same,Kd,Rb^P M704V,46 nM
same,Kd,[2],14 nM
same,Kd,[3],22 nM
